Test results from patent publication US20140087995A1 (published 2014).
One block for each binder: values may come before it. Numbered stars: 1 amine (or outer) side, 2 acyl side, 3 side chain; on linkers, the order of the positions; unused ones are H or OH. Bridge positions count the residues as written; N and C are the ends. Side chains are listed from the residue outwards. Ends that are not written are not given here. * marks the point of attachment. C20 diacid = O=C(O)CCCCCCCCCCCCCCCCCCC(=O)*; γGlu = O=C(O)[C@H](CCC(=O)[*:2])N[*:1]

Experiments:
[1] = target: T1, human amylin 3(a) receptor (human calcitonin receptor + RAMP-3) (human, UniProt P30988 25-474; O60896 24-148, limits assumed); test: cell-based or functional assay
T1 sequence (looked up) 1: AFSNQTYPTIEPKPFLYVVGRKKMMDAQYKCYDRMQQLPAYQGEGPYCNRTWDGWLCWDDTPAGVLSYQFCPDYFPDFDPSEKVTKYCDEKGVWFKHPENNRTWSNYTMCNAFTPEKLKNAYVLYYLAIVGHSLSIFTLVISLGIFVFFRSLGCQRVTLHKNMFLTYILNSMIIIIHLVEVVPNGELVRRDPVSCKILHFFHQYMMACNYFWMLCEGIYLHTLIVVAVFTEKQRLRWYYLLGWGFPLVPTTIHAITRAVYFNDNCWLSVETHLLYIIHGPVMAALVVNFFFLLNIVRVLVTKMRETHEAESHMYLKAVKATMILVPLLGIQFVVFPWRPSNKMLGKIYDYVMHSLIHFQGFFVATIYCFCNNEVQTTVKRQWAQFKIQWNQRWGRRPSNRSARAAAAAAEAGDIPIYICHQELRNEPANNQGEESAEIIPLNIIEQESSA
T1 sequence (looked up) 2: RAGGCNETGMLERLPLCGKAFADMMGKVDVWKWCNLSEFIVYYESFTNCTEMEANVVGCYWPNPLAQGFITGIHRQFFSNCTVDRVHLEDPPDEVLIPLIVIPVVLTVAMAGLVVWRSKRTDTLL

[2] = target: T2, human calcitonin receptor (human, UniProt P30988 25-474); test: cell-based or functional assay
T2 sequence (looked up): T1 sequence (looked up) 1

[3] = target: T3, rat calcitonin receptor (rat, UniProt P32214 25-516); test: ratio IC50 rat calcitonin receptor / IC50 rat amylin receptor
T3 construct: whole, on cells; Cell membranes of transiently transfected BHK tk'ts 13 cells (Assay VIII); also called rCTR; rCT
T3 sequence (looked up): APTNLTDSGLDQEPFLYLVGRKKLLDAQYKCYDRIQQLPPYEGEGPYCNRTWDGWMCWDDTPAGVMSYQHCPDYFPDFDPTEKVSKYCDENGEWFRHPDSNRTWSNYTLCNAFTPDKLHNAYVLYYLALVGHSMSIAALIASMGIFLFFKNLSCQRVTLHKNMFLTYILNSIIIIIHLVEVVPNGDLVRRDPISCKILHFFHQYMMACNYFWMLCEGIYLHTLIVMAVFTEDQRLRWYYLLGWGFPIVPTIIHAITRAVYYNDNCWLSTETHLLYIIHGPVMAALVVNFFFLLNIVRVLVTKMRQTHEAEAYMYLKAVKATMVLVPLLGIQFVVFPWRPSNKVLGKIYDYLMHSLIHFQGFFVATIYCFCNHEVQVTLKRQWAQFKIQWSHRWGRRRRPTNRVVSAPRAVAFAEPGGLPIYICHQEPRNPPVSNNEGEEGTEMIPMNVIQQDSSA

[4] = target: T4, human calcitonin receptor (human, UniProt P30988 25-474); test: ratio IC50 human calcitonin receptor / IC50 human amylin receptor
T4 construct: whole, on cells; Cell membranes of a stably transfected BHK cell line (Assay VII); also called hCTR; hCT
T4 sequence (looked up): T1 sequence (looked up) 1
In short: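 Membranes (35 ng/μL final) + SPA beads, 50 mM Hepes pH 7.4 buffer with 1 mM CaCl2, 5 mM MgCl₂, 0.1% OA, 0.02% Tween20; 120 min, 25° C, shaking; centrifuged, counted; IC₅₀ by one-site binding competition.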

[5] = target: T3, rat calcitonin receptor; test: SPA competition vs 125I-calcitonin, membranes with rat CTR (Assay VIII)
[6] = target: T5, rat amylin receptor (rat calcitonin receptor + rat RAMP 3) (rat, UniProt P32214 25-516; Q9JJ73 23-147); test: SPA competition vs 125I-rat amylin, membranes with rat CTR + rat RAMP3 (Assay VI)
T5 construct: whole, on cells; Cell membranes of transiently transfected BHK tk'ts 13 cells (Assay VI); also called rAmylin-R; rat amylin 3(a) receptor
T5 sequence (looked up) 1: T3 sequence (looked up)
T5 sequence (looked up) 2: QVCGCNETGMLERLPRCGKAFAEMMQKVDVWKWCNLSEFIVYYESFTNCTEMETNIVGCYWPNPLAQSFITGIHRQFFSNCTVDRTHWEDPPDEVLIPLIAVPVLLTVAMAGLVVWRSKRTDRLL

- hAmylin-R funct. EC50 (pM) [1]: 82 pM
- Ratio hCT/hAmylin funct. [2]: 1.1
B1: N^α1-[(4S)-4-carboxy-4-(19-carboxynonadecanoylamino)butanoyl]-[Glu14,Arg17,Pro21,Pro27,Pro37]-h-amylin (peptide)
peptide: {C20 diacid-γGlu}-KCNTATCATQRLAEFLRHSSPNFGAIPSSTNVGSNTP-NH2
modifications: disulfide 2-7
SMILES: CC[C@H](C)[C@H](NC(=O)[C@H](C)NC(=O)CNC(=O)[C@H](Cc1ccccc1)NC(=O)[C@H](CC(N)=O)NC(=O)[C@@H]1CCCN1C(=O)[C@H](CO)NC(=O)[C@H](CO)NC(=O)[C@H](Cc1c[nH]cn1)NC(=O)[C@H](CCCNC(=N)N)NC(=O)[C@H](CC(C)C)NC(=O)[C@H](Cc1ccccc1)NC(=O)[C@H](CCC(=O)O)NC(=O)[C@H](C)NC(=O)[C@H](CC(C)C)NC(=O)[C@H](CCCNC(=N)N)NC(=O)[C@H](CCC(N)=O)NC(=O)[C@@H](NC(=O)[C@H](C)NC(=O)[C@@H]1CSSC[C@H](NC(=O)[C@H](CCCCN)NC(=O)CC[C@H](NC(=O)CCCCCCCCCCCCCCCCCCC(=O)O)C(=O)O)C(=O)N[C@@H](CC(N)=O)C(=O)N[C@@H]([C@@H](C)O)C(=O)N[C@@H](C)C(=O)N[C@@H]([C@@H](C)O)C(=O)N1)[C@@H](C)O)C(=O)N1CCC[C@H]1C(=O)N[C@@H](CO)C(=O)N[C@@H](CO)C(=O)N[C@H](C(=O)N[C@@H](CC(N)=O)C(=O)N[C@H](C(=O)NCC(=O)N[C@@H](CO)C(=O)N[C@@H](CC(N)=O)C(=O)N[C@H](C(=O)N1CCC[C@H]1C(N)=O)[C@@H](C)O)C(C)C)[C@@H](C)O
notes: also called compound 8

- hAmylin-R funct. EC50 (pM) [1]: 120 pM
- Ratio hCT/hAmylin funct. [2]: 0.9
B2: N^α1-[(4S)-4-carboxy-4-(19-carboxynonadecanoylamino)butanoyl]-[Glu14,Arg17,Pro21,Pro27,Asp35,Pro37]-h-amylin (peptide)
peptide: {C20 diacid-γGlu}-KCNTATCATQRLAEFLRHSSPNFGAIPSSTNVGSDTP-NH2
modifications: disulfide 2-7
SMILES: CC[C@H](C)[C@H](NC(=O)[C@H](C)NC(=O)CNC(=O)[C@H](Cc1ccccc1)NC(=O)[C@H](CC(N)=O)NC(=O)[C@@H]1CCCN1C(=O)[C@H](CO)NC(=O)[C@H](CO)NC(=O)[C@H](Cc1c[nH]cn1)NC(=O)[C@H](CCCNC(=N)N)NC(=O)[C@H](CC(C)C)NC(=O)[C@H](Cc1ccccc1)NC(=O)[C@H](CCC(=O)O)NC(=O)[C@H](C)NC(=O)[C@H](CC(C)C)NC(=O)[C@H](CCCNC(=N)N)NC(=O)[C@H](CCC(N)=O)NC(=O)[C@@H](NC(=O)[C@H](C)NC(=O)[C@@H]1CSSC[C@H](NC(=O)[C@H](CCCCN)NC(=O)CC[C@H](NC(=O)CCCCCCCCCCCCCCCCCCC(=O)O)C(=O)O)C(=O)N[C@@H](CC(N)=O)C(=O)N[C@@H]([C@@H](C)O)C(=O)N[C@@H](C)C(=O)N[C@@H]([C@@H](C)O)C(=O)N1)[C@@H](C)O)C(=O)N1CCC[C@H]1C(=O)N[C@@H](CO)C(=O)N[C@@H](CO)C(=O)N[C@H](C(=O)N[C@@H](CC(N)=O)C(=O)N[C@H](C(=O)NCC(=O)N[C@@H](CO)C(=O)N[C@@H](CC(=O)O)C(=O)N[C@H](C(=O)N1CCC[C@H]1C(N)=O)[C@@H](C)O)C(C)C)[C@@H](C)O
notes: also called compound 11

- hAmylin-R funct. EC50 (pM) [1]: 72 pM
- Ratio hCT/hAmylin funct. [2]: 1
B3: N^α1-[(4S)-4-carboxy-4-(19-carboxynonadecanoylamino)butanoyl]-[Asp14,Arg17,Pro21,Pro27,Pro37]-h-amylin (peptide)
peptide: {C20 diacid-γGlu}-KCNTATCATQRLADFLRHSSPNFGAIPSSTNVGSNTP-NH2
modifications: disulfide 2-7
SMILES: CC[C@H](C)[C@H](NC(=O)[C@H](C)NC(=O)CNC(=O)[C@H](Cc1ccccc1)NC(=O)[C@H](CC(N)=O)NC(=O)[C@@H]1CCCN1C(=O)[C@H](CO)NC(=O)[C@H](CO)NC(=O)[C@H](Cc1c[nH]cn1)NC(=O)[C@H](CCCNC(=N)N)NC(=O)[C@H](CC(C)C)NC(=O)[C@H](Cc1ccccc1)NC(=O)[C@H](CC(=O)O)NC(=O)[C@H](C)NC(=O)[C@H](CC(C)C)NC(=O)[C@H](CCCNC(=N)N)NC(=O)[C@H](CCC(N)=O)NC(=O)[C@@H](NC(=O)[C@H](C)NC(=O)[C@@H]1CSSC[C@H](NC(=O)[C@H](CCCCN)NC(=O)CC[C@H](NC(=O)CCCCCCCCCCCCCCCCCCC(=O)O)C(=O)O)C(=O)N[C@@H](CC(N)=O)C(=O)N[C@@H]([C@@H](C)O)C(=O)N[C@@H](C)C(=O)N[C@@H]([C@@H](C)O)C(=O)N1)[C@@H](C)O)C(=O)N1CCC[C@H]1C(=O)N[C@@H](CO)C(=O)N[C@@H](CO)C(=O)N[C@H](C(=O)N[C@@H](CC(N)=O)C(=O)N[C@H](C(=O)NCC(=O)N[C@@H](CO)C(=O)N[C@@H](CC(N)=O)C(=O)N[C@H](C(=O)N1CCC[C@H]1C(N)=O)[C@@H](C)O)C(C)C)[C@@H](C)O
notes: also called compound 10

- hAmylin-R funct. EC50 (pM) [1]: 154 pM
- Ratio hCT/hAmylin funct. [2]: 4.8
B4: N^α1-[(4S)-4-carboxy-4-(19-carboxynonadecanoylamino)butanoyl]-[Glu14,Arg17,Pro21,Pro27,His35]-h-amylin (peptide)
peptide: {C20 diacid-γGlu}-KCNTATCATQRLAEFLRHSSPNFGAIPSSTNVGSHTY-NH2
modifications: disulfide 2-7
SMILES: CC[C@H](C)[C@H](NC(=O)[C@H](C)NC(=O)CNC(=O)[C@H](Cc1ccccc1)NC(=O)[C@H](CC(N)=O)NC(=O)[C@@H]1CCCN1C(=O)[C@H](CO)NC(=O)[C@H](CO)NC(=O)[C@H](Cc1c[nH]cn1)NC(=O)[C@H](CCCNC(=N)N)NC(=O)[C@H](CC(C)C)NC(=O)[C@H](Cc1ccccc1)NC(=O)[C@H](CCC(=O)O)NC(=O)[C@H](C)NC(=O)[C@H](CC(C)C)NC(=O)[C@H](CCCNC(=N)N)NC(=O)[C@H](CCC(N)=O)NC(=O)[C@@H](NC(=O)[C@H](C)NC(=O)[C@@H]1CSSC[C@H](NC(=O)[C@H](CCCCN)NC(=O)CC[C@H](NC(=O)CCCCCCCCCCCCCCCCCCC(=O)O)C(=O)O)C(=O)N[C@@H](CC(N)=O)C(=O)N[C@@H]([C@@H](C)O)C(=O)N[C@@H](C)C(=O)N[C@@H]([C@@H](C)O)C(=O)N1)[C@@H](C)O)C(=O)N1CCC[C@H]1C(=O)N[C@@H](CO)C(=O)N[C@@H](CO)C(=O)N[C@H](C(=O)N[C@@H](CC(N)=O)C(=O)N[C@H](C(=O)NCC(=O)N[C@@H](CO)C(=O)N[C@@H](Cc1c[nH]cn1)C(=O)N[C@H](C(=O)N[C@@H](Cc1ccc(O)cc1)C(N)=O)[C@@H](C)O)C(C)C)[C@@H](C)O
notes: also called compound 18

- Ratio rCT/rAmylin binding [3]: 201
- Ratio hCT/hAmylin binding [4]: 69.7
- IC50 [5]: 112 nM
- IC50 [6]: 0.558 nM
B5: N^ε1-[(4S)-4-carboxy-4-(19-carboxynonadecanoylamino)butanoyl]-[Arg17,Pro21,Pro27]-h-amylin (peptide)
peptide: K([γGlu-C20 diacid])CNTATCATQRLANFLRHSSPNFGAIPSSTNVGSNTY-NH2
modifications: disulfide 2-7; N-terminus assumed
SMILES: CC[C@H](C)[C@H](NC(=O)[C@H](C)NC(=O)CNC(=O)[C@H](Cc1ccccc1)NC(=O)[C@H](CC(N)=O)NC(=O)[C@@H]1CCCN1C(=O)[C@H](CO)NC(=O)[C@H](CO)NC(=O)[C@H](Cc1c[nH]cn1)NC(=O)[C@H](CCCNC(=N)N)NC(=O)[C@H](CC(C)C)NC(=O)[C@H](Cc1ccccc1)NC(=O)[C@H](CC(N)=O)NC(=O)[C@H](C)NC(=O)[C@H](CC(C)C)NC(=O)[C@H](CCCNC(=N)N)NC(=O)[C@H](CCC(N)=O)NC(=O)[C@@H](NC(=O)[C@H](C)NC(=O)[C@@H]1CSSC[C@H](NC(=O)[C@@H](N)CCCCNC(=O)CC[C@H](NC(=O)CCCCCCCCCCCCCCCCCCC(=O)O)C(=O)O)C(=O)N[C@@H](CC(N)=O)C(=O)N[C@@H]([C@@H](C)O)C(=O)N[C@@H](C)C(=O)N[C@@H]([C@@H](C)O)C(=O)N1)[C@@H](C)O)C(=O)N1CCC[C@H]1C(=O)N[C@@H](CO)C(=O)N[C@@H](CO)C(=O)N[C@H](C(=O)N[C@@H](CC(N)=O)C(=O)N[C@H](C(=O)NCC(=O)N[C@@H](CO)C(=O)N[C@@H](CC(N)=O)C(=O)N[C@H](C(=O)N[C@@H](Cc1ccc(O)cc1)C(N)=O)[C@@H](C)O)C(C)C)[C@@H](C)O
notes: Acylated analogue of human amylin; also called compound 48
